Test results: article PMC4601027, “Structural Analysis of the Pin1-CPEB1 interaction and its potential role in CPEB1 degradation” (Scientific Reports, 2015)
“And” between values parts separate entries of the source, which are not always exact repeats. Equal values may be shown once. Non-standard residues stand in square brackets, D forms with d. No end group written: not given here. pS = N[C@@H](COP(=O)(O)O)C(=O)O

Experiments:
full-length Pin1 [1] = target: T1, full-length Pin1 (UniProt Q13526 1-163); assay: native MS; travelling wave ion mobility mass spectrometry (IM-MS), nano-electrospray; unbound full-length Pin1 or Pin1 with CPEB1 pS210, 30-50 μM, 20-50 mM NH4OAc pH 7.2; settings: both partners purified
T1 construct: Pin1 (peptidyl-prolyl cis/trans isomerase), full length; WW domain, linker and PPIase (catalytic) domain; Uniprot Q13526 is printed for the WW construct; 15N-labelled for NMR; The vector has a TEV cleavage site; Monomer by IM-MS; also called Pin1 full-length; full-length Pin1 protein; source: recombinant; clone from Addgene (Dustin Maly's Lab) in pMCSG7

full-length Pin1 [2] = target: T1, full-length Pin1; assay: ITC; nano ITC, 12 °C or 25 °C; 20 mM Tris-HCl pH 7.0, 130 mM NaCl; 10- to 15-fold concentrated peptide injected (16 x 3 μL) into 190 μL of protein at 150-200 μM; single-site fit, except Pin1 full-length with pS210; settings: both partners purified

T1 sequence (Q13526 whole entry, the tested form may be a part): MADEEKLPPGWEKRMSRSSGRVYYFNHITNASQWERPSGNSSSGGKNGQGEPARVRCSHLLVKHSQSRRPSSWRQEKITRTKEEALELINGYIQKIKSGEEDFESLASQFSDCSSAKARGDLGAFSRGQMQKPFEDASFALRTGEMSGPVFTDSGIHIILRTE

Which “stoichiometry N” value (full-length Pin1 [1]) does the source give for RI[pS]PPLPF-NH2 [CPEB1 pS210 peptide] here?
The value was 1 ligands per Pin1 and 2 ligands per Pin1.

What about the “stoichiometry N” value (full-length Pin1 [2]) of the same binder?
Its value is 0.85.
